Article PMC5882242, “Functional roles of Mg^2+ binding sites in ion-dependent gating of a Mg^2+ channel, MgtE, revealed by solution NMR” (eLife, 2018)

Molecular target: the molecule itself
Assay: SEC; Superdex 200 GL 10/300; 20 mM HEPES-NaOH (pH 6.1), 100 mM NaCl, 1 mM DDM; BSA monomer, dimer and tetramer as standards; MgtE in DDM micelles

B1: full-length MgtE from Thermus thermophilus (natural protein, UniProt Q5SMG8 1-450, looked up)
chain: MEEKLAVSLQEALQEGDTRALREVLEEIHPQDLLALWDELKGEHRYVVLTLLPKAKAAEVLSHLSPEEQAEYLKTLPPWRLREILEELSLDDLADALQAVRKEDPAYFQRLKDLLDPRTRAEVEALARYEEDEAGGLMTPEYVAVREGMTVEEVLRFLRRAAPDAETIYYIYVVDEKGRLKGVLSLRDLIVADPRTRVAEIMNPKVVYVRTDTDQEEVARLMADYDFTVLPVVDEEGRLVGIVTVDDVLDVLEAEATEDIHKLGAVDVPDLVYSEAGPVALWLARVRWLVILILTGMVTSSILQGFESVLEAVTALAFYVPVLLGTGGNTGNQSATLIIRALATRDLDLRDWRRVFLKEMGVGLLLGLTLSFLLVGKVYWDGHPLLLPVVGVSLVLIVFFANLVGAMLPFLLRRLGVDPALVSNPLVATLSDVTGLLIYLSVARLLLEAV
notes: MgtE, Mg2+ channel of Thermus thermophilus, full length (residues 1-450: cytoplasmic region 1-263, transmembrane region 264-450); plasmid with N-terminal His x 6 tag and HRV-3C protease recognition site; Dimer in DDM micelles by SEC; theoretical M.W. 50 kDa a subunit; The construct is described in Hattori et al., 2007a; also called wild-type MgtE; WT; source: E. coli C41 (DE3), solubilized in …
With B1 the “stoichiometry N” value was 2.
